These are literature values, as cited in article PMC6589385.

In the series the target is His19 (position 19, …). The experiment in a line: NMR. The settings on record: Membrane-bound wild-type BM2 tetrameric channel.

As to MLEPFQILSISSFILSALHFMAWTIGHLNQIKR [Influenza B virus M2 protein (BM2) transmembrane domain, wild type (Influenza B virus)], the pKa is listed as 5.1.

By pKa is commonly meant the pH at which an ionisable group is half protonated.
